Where “and” joins values, the source holds several entries; their conditions need not be identical. Equal entries are not always repeated. Where two headings read alike, the source gives them in different places.
Key:
avidin (AV) [1] = target: T1, avidin (AV) (Gallus gallus, UniProt P02701); assay: Stopped-flow association kinetics of dye-labeled biotin probes binding to avidin (F(t), rF(t); Arrhenius plots/global fitting); design: ln(k) / dS+ / dG+ / Eon for BFl / b of the line y = m1x+b1: unit not given here; conditions: forward step from Initial 0, probe not given
T1 construct: purchased Calbiochem (La Jolla, CA)
Protocol: These reactions were carried out in a buffered solution of 10 mM Tris-HCl, 100 mM KCl, 2.5 mM MgCl2 and 1 mM CaCl2 at pH 8 and only AV-BcO reactions included pH 9 and 10. The concentrations, after mixing, were of 20 nM of dye-labeled B7 probe and 260 nM, 520 nM or 1040 nM of AV; and 200 nM, 300 nM, 400 nM or 800 nM of SAV at temperatures of 10, 15, 20 and 25°C. The deglycosylation of AV (for comparative association reactions) was carried out using the provided standard protocol with endoglycosidase H [47], both with and without incubation of a denaturant solution (2% SDS and 1M 2-mercaptoethanol).
The reactions were collected with the SF instrument, described previously. The fluorescence signal was collected through a 520 nm interference filter (Oriel Corp., Stratford, CT) with a detector time constant and SF dead time of 1 μs and 1 ms, respectively. The excitation light was provided by the Coherent Ar^+ ion laser (described above) at 488 nm with […] of incident power on the reaction cuvette. The laser source was followed by the photo-elastic modulator described above with the axis oriented 45^o with respect to the electric vector of the incident light and with the half-wave modulation (50 kHz) set for 488 nm excitation. The demodulation circuitry following the photomultiplier provided a DC(t) and a rectified AC(t) which were converted to digital data by a high-speed digitizer (PCI-5122) from National Instruments (Austin, TX) with 14-bit resolution and 100 MHz bandwidth, through channels 0 and 1. The data acquisition was controlled by LabVIEW (Vr 8) software at a collection rate of 6120 data points/second and stored in spreadsheets. The AC(t) and DC(t) data were baseline corrected before obtaining the signal ratio (Eq 4) as a function of time (ρt).
(§1) The constant AGain is the instrumental amplitude gain and was evaluated by solving ρ(t) using the known steady state anisotropy (rss) of the complexes which is equivalent to the r(t) at t = ∞; and H, obtained from the equivalent grating factor (G) for the filters and photo multiplier tubes in the SF. For the probes used in here G was 0.82 and H = (1-G)/(1+G) = 0.099. Knowing Again and H, the AC(t) and DC(t) signals can be solved for r(t) and F(t) (Eqs 4 and 5) and the normalized fluorescence, F¯(t) , and corrected fluorescence anisotropy, rF¯(t), were obtained when F¯(0) and rF¯(0) were scaled to 1 at t = 0.
(§2) The F¯(t) (Eq 6) is equivalent to (I||) + 2 (I⊥) and proportional to quantum yield (QYi), molar absorptivity (εi) and to the formation or disappearance of the emitting species Xi(t); and rF¯(t) including the steady state anisotropies (rss) of each fluorescent species (Eq 7).
(§3) The possible reaction models were discriminated by the squared residuals of the observed and calculated association traces of both fluorescence and anisotropy fluorescence signals, F¯(t) and rF¯(t) , respectively.

avidin (AV) [2] = target: T1, avidin (AV); assay: Literature calorimetry reaction thermodynamics; type: binding; conditions: line without author below the literature lines (average)
avidin (AV) [3] = target: T1, avidin (AV); conditions: cited from earlier work; for Off rate constants, ln k / Off rate constants, rate: AV; for Off rate constants, ln k: the values are: ln koff; for Off rate constants, rate: in s^-1 (unit assumed)
[4] = design: method as in PMID 10796986; conditions: cited from earlier work
avidin (AV) [5] = target: T1, avidin (AV); assay: Literature kinetics, affinity and dissociation (backward) activation parameters; type: binding
avidin (AV) [6] = target: T1, avidin (AV); conditions: cited from earlier work
streptavidin (SAV) [7] = target: T2, streptavidin (SAV) (Streptomyces avidinii, UniProt P22629); conditions: cited from earlier work
T2 construct: purchased Sigma Aldrich (St. Louis, MO)

streptavidin (SAV) [8] = target: T2, streptavidin (SAV); assay: Literature calorimetry reaction thermodynamics; type: binding
streptavidin (SAV) [9] = target: T2, streptavidin (SAV); assay: Literature kinetics, affinity and dissociation (backward) activation parameters; type: binding
streptavidin (SAV) [10] = target: T2, streptavidin (SAV); assay: Stopped-flow association kinetics of dye-labeled biotin probes binding to streptavidin (F(t), rF(t); Arrhenius plots/global fitting); conditions: forward step from Initial 0, probe not given
Protocol: These reactions were carried out in a buffered solution of 10 mM Tris-HCl, 100 mM KCl, 2.5 mM MgCl2 and 1 mM CaCl2 at pH 8 and only AV-BcO reactions included pH 9 and 10. […] The deglycosylation of AV (for comparative association reactions) was carried out using the provided standard protocol with endoglycosidase H [47], both with and without incubation of a denaturant solution (2% SDS and 1M 2-mercaptoethanol).
The reactions were collected with the SF instrument, described previously. […] The AC(t) and DC(t) data were baseline corrected before obtaining the signal ratio (Eq 4) as a function of time (ρt).
as §1, §2, §3

streptavidin (SAV) [11] = target: T2, streptavidin (SAV); conditions: cited from earlier work; for Off rate constants, rate / Ea from off rate constants: SAV; for Off rate constants, rate: ligand not given, ref klumb paper; for ln(frac bound): rate off SAV
[12] = Enthalpy block, from literature off rates, ref not given
[13] = ligand not given (biotin binding), ref Helppolainen
[14] = line without author below the literature lines
[15] = Enthalpy block, literature value, ref not given
[16] = Gibbs block, literature value, ref not given
[17] = entropy block, literature value, ref not given
[18] = ligand not given (biotin binding), first Green line, ref Green
[19] = ligand not given (biotin binding), ref Suurkuusk
[20] = ligand not given (biotin binding), second Green line, ref Green
[21] = free biotin, 43 C, read from a literature plot
[22] = free biotin, 55 C, read from a literature plot
[23] = free biotin, 66 C, read from a literature plot
[24] = ligand not given (biotin binding), ref Green
[25] = ligand not given (biotin binding), ref Hyre
[26] = ligand not given (biotin binding), ref Klumb
[27] = ligand not given (biotin binding), ref Weber
[28] = line without author below the literature lines (average)

T1 sequence (P02701 25-152): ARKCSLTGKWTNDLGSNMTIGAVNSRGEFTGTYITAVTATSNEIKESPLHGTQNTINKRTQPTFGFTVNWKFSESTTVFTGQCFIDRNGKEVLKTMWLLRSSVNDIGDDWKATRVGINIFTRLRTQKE
T2 sequence (P22629 25-183): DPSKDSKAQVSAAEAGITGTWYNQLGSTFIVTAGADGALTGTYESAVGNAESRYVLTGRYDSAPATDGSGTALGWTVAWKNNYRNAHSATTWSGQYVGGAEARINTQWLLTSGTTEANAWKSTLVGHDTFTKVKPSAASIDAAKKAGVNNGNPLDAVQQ

Molecule: AV: avidin, homo-tetrameric biotin-binding protein, CAS 1405-69-2
- dG+ (avidin (AV) [1]; Gibbs block): 4.7
- dS+ (avidin (AV) [1]; entropy block): 32.8
- dH (avidin (AV) [2]): -21.9 kcal/mol
- Off rate constants, ln k (avidin (AV) [3]; 43 C, ligand not given, ref rhiziavidin paper): -14.3
- Off rate constants, ln k (avidin (AV) [3]; 55 C, ligand not given, ref rhiziavidin paper): -12.2
- Off rate constants, ln k (avidin (AV) [3]; 66 C, ligand not given, ref rhiziavidin paper): -10
- Off rate constants, ln k (avidin (AV) [3]; 68 C, ligand not given, ref rhiziavidin paper): -10.1
- Eoff (ave) (avidin (AV) [3]; [12]): 37.6
- Eaoff (avidin (AV) [3]; [13]): 35.6
- thermal stability with bound B7 [4]: 117 °C and 112 °C
- thermal stability without bound B7 [4]: 84 °C
- dSǂ from off rate constants, from transition state teory (avidin (AV) [5]; AV): 31.8 cal/(mol·K)
- TdS* (avidin (AV) [5]; AV, at 25C): 1.28E+04
- dG* (avidin (AV) [5]; AV, at 25C, from off rates of rhiziavidin-helponainen-2007): 2.47E+04
- dS (intercept less ln[RT/Noh), times 1.987) (avidin (AV) [5]; AV, from off rate constants): 43 cal/(mol·K)
- slope intersept, ln A (avidin (AV) [5]; AV, from off rate constants of rhiziavidin-helponainen-2007): 45.4
- sum (Enthalpy: Eon for BFl and dH) (avidin (AV) [5]; Enthalpy block): 37.6
- sum (Gibbs: dG+ and dG) (avidin (AV) [5]; Gibbs block): 25.4
- sum (entropy: dS+ and dS) (avidin (AV) [5]; entropy block): 41.7
- Ea from off rate constants (avidin (AV) [5]; for AV, from off rates of rhiziavidin-helponainen-2007): 37.5 kcal/mol
- Eaoff (avidin (AV) [5]; [14]): 35.6
- dH + Ea (avidin (AV) [5]; [14]): 36.5
- dH (avidin (AV) [6]; [15]): -23.2
- dG (avidin (AV) [6]; [16]): -20.7
- dS (avidin (AV) [6]; [17]): -8.9
- TdS (avidin (AV) [6]; [18]): 0 kcal/mol
- dG (avidin (AV) [6]; [18]): -20.5 kcal/mol
- dS (avidin (AV) [6]; [18]): 0
- TdS (avidin (AV) [6]; [19]): -8.9 kcal/mol
- dCp (avidin (AV) [6]; [19]): -237
- dH (avidin (AV) [6]; [19]): -22.5 kcal/mol
- dH (avidin (AV) [6]; ligand not given (biotin binding), ref swamy): -23.4 kcal/mol
- TdS (avidin (AV) [6]; [20]): -2.65 kcal/mol
- dG (avidin (AV) [6]; [20]): -20.75 kcal/mol
- dH (avidin (AV) [6]; [20]): -20.3 kcal/mol
- dS (avidin (AV) [6]; [20]): -8.9

Molecule: O=C(O)CCCC[C@@H]1SC[C@@H]2NC(=O)N[C@@H]21 [free biotin]
- Off rate constants, rate (avidin (AV) [3]; [21]): 5.623e-6
- Off rate constants, ln k (avidin (AV) [3]; [21]): -12.1
- Off rate constants, rate (avidin (AV) [3]; [22]): 6.31e-5
- Off rate constants, ln k (avidin (AV) [3]; [22]): -9.67
- Off rate constants, rate (avidin (AV) [3]; [23]): 0.0005623
- Off rate constants, ln k (avidin (AV) [3]; [23]): -7.48

Molecule: SAV: streptavidin, homo-tetrameric biotin-binding protein, CAS 9013-20-1
- dH (streptavidin (SAV) [7]; [15]): -24.8
- dG (streptavidin (SAV) [7]; [16]): -18.2
- dS (streptavidin (SAV) [7]; [17]): -21
- TdS (streptavidin (SAV) [7]; [24]): -6.4
- dG (streptavidin (SAV) [7]; [24]): -18.1 kcal/mol
- dH (streptavidin (SAV) [7]; [13]): -26.7 kcal/mol
- TdS (streptavidin (SAV) [7]; [25]): -13.7
- dCp (streptavidin (SAV) [7]; [25]): -345
- dG (streptavidin (SAV) [7]; [25]): -18.3 kcal/mol
- dH (streptavidin (SAV) [7]; [25]): -24.5 kcal/mol
- dS (streptavidin (SAV) [7]; [25]): -45.9
- dH (streptavidin (SAV) [7]; [26]): -24.9 kcal/mol
- TdS (streptavidin (SAV) [7]; ligand not given (biotin binding), ref Stayton): -21.5
- dH (streptavidin (SAV) [7]; [27]): -32 kcal/mol
- dH (streptavidin (SAV) [7]; ligand not printed in the sheet (biotin binding), ref Green): -23 kcal/mol
- TdS (streptavidin (SAV) [8]; [14]): -46.0
- dH (streptavidin (SAV) [8]; [28]): -24.8 kcal/mol
- sum (Enthalpy: Eon for BFl and dH) (streptavidin (SAV) [9]; Enthalpy block): 30.8
- sum (Gibbs: dG+ and dG) (streptavidin (SAV) [9]; Gibbs block): 22.2
- dSǂ from off rate constants, from transition state teory (streptavidin (SAV) [9]; SAV): 18.8
- TdS* (streptavidin (SAV) [9]; SAV, at 25C): 8.94E+03
- dG* (streptavidin (SAV) [9]; SAV, at 25C, line names rhiziavidin-helponainen-2007): 2.14E+04
- slope intersept, ln A (streptavidin (SAV) [9]; SAV, from literature off rate constants): 38.85
- dS (intercept less ln[RT/Noh), times 1.987) (streptavidin (SAV) [9]; SAV, from off rate constants): 30.0
- sum (entropy: dS+ and dS) (streptavidin (SAV) [9]; entropy block): 27.7
- dH + Ea (streptavidin (SAV) [9]; [14]): 31.8
- dS* (streptavidin (SAV) [9]; [14]): 0.0195 kcal/mol
- Eaoff (streptavidin (SAV) [9]; [28]): 29.6
- thermal stability with bound B7 [4]: 112 °C and 117 °C
- thermal stability without bound B7 [4]: 75 °C
- dG+ (streptavidin (SAV) [10]; Gibbs block): 4
- dS+ (streptavidin (SAV) [10]; entropy block): 6.7
- Eoff (ave) (streptavidin (SAV) [11]; [12]): 29.4
- Off rate constants, rate (streptavidin (SAV) [11]; 20 C): 1.862e-6
- Off rate constants, rate (streptavidin (SAV) [11]; 30 C): 9.12e-6
- Off rate constants, rate (streptavidin (SAV) [11]; 39 C): 4.467e-5
- Ea from off rate constants (streptavidin (SAV) [11]; ref hyre): 30.4 kcal/mol and 30.4 ± 0.2hyre kcal/mol
- Ea from off rate constants (streptavidin (SAV) [11]; ref klumb): 29.4 kcal/mol and 29.4 ± 0.4klumb kcal/mol
- Ea from off rate constants (streptavidin (SAV) [11]; ref rhiziavidin-helponainen-2007): 29.0 ± 1.0 kcal/mol
- Eaoff (streptavidin (SAV) [11]; [13]): 29
- TdS* (streptavidin (SAV) [11]; [13]): 7.6 kcal/mol
- dH* (streptavidin (SAV) [11]; [13]): 32 kcal/mol
- dS* (streptavidin (SAV) [11]; [13]): 0.0257 kcal/mol
- Eaoff (streptavidin (SAV) [11]; [25]): 29.4
- TdS* (streptavidin (SAV) [11]; [25]): 5.6 kcal/mol
- dH* (streptavidin (SAV) [11]; [25]): 30.4 kcal/mol
- dS* (streptavidin (SAV) [11]; [25]): 0.0058 kcal/mol
- Eaoff (streptavidin (SAV) [11]; [26]): 30.4
- dG* (streptavidin (SAV) [11]; [26]): 24.6
- dH* (streptavidin (SAV) [11]; [27]): 40 kcal/mol
- ln(frac bound) (streptavidin (SAV) [11]; time 13 hr, ref klumb): -0.19
- ln(frac bound) (streptavidin (SAV) [11]; time 22 hr, ref klumb): -0.36
- ln(frac bound) (streptavidin (SAV) [11]; time 36 hr, ref klumb): -0.47
- ln(frac bound) (streptavidin (SAV) [11]; time 47 hr, ref klumb): -0.62
- ln(frac bound) (streptavidin (SAV) [11]; time 63 hr, ref klumb): -0.78

Reference: paper PMC6394990, “Detailed characterization of the solution kinetics and thermodynamics of biotin, biocytin and HABA binding to avidin and streptavidin” (PLoS ONE, 2019)
